Target: T1, bovine serum albumin (bovine, UniProt P02769 25-607)
T1 construct: Control resin with an equimolar amount of BSA coupled; also called BSA; BSA-agarose resin
Test: affinity chromatography of murine liver extract on BSA control resin, SDS-PAGE and silver staining

T1 sequence (P02769 25-607 limits assumed): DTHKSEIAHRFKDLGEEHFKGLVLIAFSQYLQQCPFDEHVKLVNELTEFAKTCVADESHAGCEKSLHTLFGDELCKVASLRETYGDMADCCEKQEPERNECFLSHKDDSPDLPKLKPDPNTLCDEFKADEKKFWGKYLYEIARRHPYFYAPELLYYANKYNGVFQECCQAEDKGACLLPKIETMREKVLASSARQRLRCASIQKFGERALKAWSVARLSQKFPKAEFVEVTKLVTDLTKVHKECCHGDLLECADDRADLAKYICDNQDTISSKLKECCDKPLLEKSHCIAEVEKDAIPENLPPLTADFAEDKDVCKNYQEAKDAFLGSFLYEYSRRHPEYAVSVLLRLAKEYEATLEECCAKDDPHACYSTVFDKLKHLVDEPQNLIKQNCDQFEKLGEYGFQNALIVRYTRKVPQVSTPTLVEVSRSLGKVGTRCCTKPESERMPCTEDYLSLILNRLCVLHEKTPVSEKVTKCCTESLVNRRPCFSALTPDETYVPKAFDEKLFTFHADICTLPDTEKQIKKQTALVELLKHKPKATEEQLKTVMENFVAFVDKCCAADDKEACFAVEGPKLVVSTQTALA

B1: endogenous LIMP-2 from murine liver extract (75 kD GC binding protein) (receptor)
chain: MGRCCFYTAGTLSLLLLVTSVTLLVARVFQKAVDQTIEKNMVLQNGTKVFNSWEKPPLPVYIQFYFFNVTNPEEILQGEIPLLEEVGPYTYRELRNKANIQFGENGTTISAVTNKAYVFERNQSVGDPNVDLIRTINIPLLTVVDLAQLTLLRELIEAMLKAYQQKLFVIHTVHELLWGYKDEILSLVHIFKPDVSPNFGLFYERNGTNDGEYVFLTGEDNYLNFSKIVEWNGKTSLDWWTTDTCNMINGTDGDSFHPLISKDEVLYLFPSDLCRSVHITFSSFENVEGLPAFRYKVPAEILANTSENAGFCIPEGNCMDSGVLNISICKNGAPIIMSFPHFYQADEKFVSAIKGMHPNKEEHESFVDINPLTGIILRGAKRFQINTYVRKLDDFVETGDIRTMVFPVMYLNESVLIDKETANQLKSVINTTLVVTNIPYIIMALGVFFGLVFTWLACRGQGSMDEGTADERAPLIRT
notes: Identified by mass spectrometry as LIMP-2; N-glycosylated (75 kD, 54 kD after PNGase-F); also called 75 kD polypeptide
B1: no binding.

Source: patent US20100330617A1 (Sanofi, published 2010)
